Reference: US20180044393A1 (INSERM INSTITUT NATIONAL DE LA SANT ET DE LA RECHERCHE M …, published 2018)
Positions count from the first letter of the chain named. Positions of bridges follow the written chain, without caps; N, C: chain ends. No end group written: not given here. *: point of attachment. 125I = [125I]*

Tests used:
Test in all cases: 125I-OxA binding on CHO-S cells expressing the OX1R mutant
OX1R Y124A = molecular target: T1, OX1R Y124A (human, UniProt O43613 1-425)
T1 construct: site-directed mutant (TM3) stably expressed in CHO-S cells; not shown: YFP from vector pEYFP-N2 fused at the C-terminus
T1 chain: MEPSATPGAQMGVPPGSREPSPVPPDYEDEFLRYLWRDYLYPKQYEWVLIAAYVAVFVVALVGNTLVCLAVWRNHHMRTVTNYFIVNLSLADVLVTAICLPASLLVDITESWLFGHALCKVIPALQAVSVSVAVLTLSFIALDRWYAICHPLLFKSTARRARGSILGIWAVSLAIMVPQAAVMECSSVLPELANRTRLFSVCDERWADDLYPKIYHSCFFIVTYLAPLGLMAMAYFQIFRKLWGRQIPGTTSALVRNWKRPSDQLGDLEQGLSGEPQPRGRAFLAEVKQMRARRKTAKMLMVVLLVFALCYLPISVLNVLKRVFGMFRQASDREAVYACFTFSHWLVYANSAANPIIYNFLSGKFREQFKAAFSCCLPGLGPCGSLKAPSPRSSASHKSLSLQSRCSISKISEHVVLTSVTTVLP
Experimental: (§1) CHO—S cells expressing recombinant native or mutated OX1R were grown as previously described (El Firar et al., 2009) and maintained at 37° C. in a humidified 5% CO₂/air incubator. ¹²⁵I-orexia-A (74 TBq/mmol) was prepared as previously described (El Firar et al., 2009). […] Free peptides were removed by 2 cell washing cycles with PBS. […] Data were analyzed using the GraphPad software (http://www.graphpad.com).
(§2) All residues of OX1R fulfilling this condition were mutated to alanine by site-directed mutagenesis (Table II).

OX1R K321A = molecular target: T2, OX1R K321A (human, UniProt O43613 1-425)
T2 construct: site-directed mutant (TM6) stably expressed in CHO-S cells; not shown: YFP from vector pEYFP-N2 fused at the C-terminus
T2 chain: T1 chain with A124Y, K321A
Experimental: as §1, §2

OX1R Y348A = molecular target: T3, OX1R Y348A (human, UniProt O43613 1-425)
T3 construct: site-directed mutant (TM7) stably expressed in CHO-S cells; not shown: YFP from vector pEYFP-N2 fused at the C-terminus
T3 chain: T1 chain with A124Y, Y348A
Experimental: as §1, §2

OX1R F220A = molecular target: T4, OX1R F220A (human, UniProt O43613 1-425)
T4 construct: site-directed mutant (TM5) stably expressed in CHO-S cells; not shown: YFP from vector pEYFP-N2 fused at the C-terminus
T4 chain: T1 chain with A124Y, F220A
Experimental: as §1, §2

OX1R V121A = molecular target: T5, OX1R V121A (human, UniProt O43613 1-425)
T5 construct: site-directed mutant (TM3) stably expressed in CHO-S cells; not shown: YFP from vector pEYFP-N2 fused at the C-terminus
T5 chain: T1 chain with V121A, A124Y
Experimental: as §1, §2

Measured: binding result

QPLPDCCRQKTCSCRLY(125I)ELLHGAGNHAAGILTL (peptide, UniProt O43612 34-66, looked up, disulfide 6-12, 7-14; not fully specified (residue 1, C-terminus), mature; also called OxA) [125I-orexin-A]
binds: all assays above
